The text below walks through data of publication PMC8557155 (Annals of Nuclear Medicine, 2021).

Like-named read-outs stand apart in the source and are kept apart here.

For series [1] the following is noted: in vivo; cited from earlier work. An excerpt: This study is the first clinical trial on ^177Lu-DOTATATE for unresectable NETs in Japan. At 29.6 GBq, the absorbed dose to the kidney and red bone marrow was 16.8 Gy and 0.722 Gy, respectively. These values were lower than the reported threshold dose for the kidney (23 Gy) and the red bone marrow (2 Gy). The calculated absorbed doses to the kidney, spleen, red bone marrow, and liver were 0.568, 0.559, 0.0244 and 0.247 mGy/MBq, respectively, in this study. We compared the calculated absorbed dose to each organ with previously published studies in Caucasian populations. […] In this study, the primary lesions were located in the pancreas, stomach, and rectum. Therefore, many patients underwent pancreatectomy and colectomy before enrollment in the study; diarrhea is likely to occur more in such patients compared to primary midgut cases because pancreatic enzyme deficiency o ...

On the set-up of series [2]: species or system human (Japanese patients). The settings on record: in vivo.
The conditions of series [3]: in vivo; cited from earlier work. An excerpt: This study is the first clinical trial on ^177Lu-DOTATATE for unresectable NETs in Japan. At 29.6 GBq, the absorbed dose to the kidney and red bone marrow was 16.8 Gy and 0.722 Gy, respectively. These values were lower than the reported threshold dose for the kidney (23 Gy) and the red bone marrow (2 Gy). The calculated absorbed doses to the kidney, spleen, red bone marrow, and liver were 0.568, 0.559, 0.0244 and 0.247 mGy/MBq, respectively, in this study. We compared the calculated absorbed dose to each organ with previously published studies in Caucasian populations. In the prev ... || In this study, severe lymphopenia occurred in two (33.3%) cases, and other hematological toxicities were grade 1 or 2 leukocytopenia and thrombocytopenia. This finding was very similar to that reported in the Erasmus study. […] In the present study, lymphocyte, erythrocyte, and leukocyte counts gradua ...
This is another data set of the same source.

Take `C[C@@H](O)[C@H](NC(=O)[C@@H]1CSSC[C@H](NC(=O)[C@@H](Cc2ccccc2)NC(=O)CN2CCN(CC(=O)O)CCN(CC(=O)O)CCN(CC(=O)O)CC2)C(=O)N[C@@H](Cc2ccc(O)cc2)C(=O)N[C@H](Cc2c[nH]c3ccccc23)C(=O)N[C@@H](CCCCN)C(=O)N[C@@H]([C@@H](C)O)C(=O)N1)C(=O)O` [177Lu-DOTATATE, ^177Lu-DOTA^0-Tyr^3-octreotate, metal not drawn]: in series [1], the “Diarrhea, frequency” value is listed as 28.8% and the “Severe renal toxicities, frequency” value was 0.9%. Further, in series [2], the “Fraction of the injected activity retained in the blood at 20 min after the injection” value is listed as 0.00351 % dose/g and the “Fraction of the injected activity retained in the blood at 4 h after the injection” value is recorded as 0.00077 % dose/g. Moreover, in series [2] (iv), the “Effective half-time, distribution phase” value worked out at 2.37 ± 0.30 h and the “Effective half-time, excretion phase” value was 42.7 ± 2.44 h. Besides, in series [3], the “Severe lymphopenia at the follow-up visit after 3 month final treatment” value is 25.8%; the “Severe lymphopenia at the follow-up visit after 30 months final treatment” value was 5.6%; the “Severe lymphopenia, frequency” value is listed as 50.0%; the “Severe renal toxicities, frequency” value is 1%.
